How the values were obtained:
full-length GR [1] = biological target: T1, full-length GR (Homo sapiens, UniProt P04150 1-777); experiment: fluorescence polarization; conditions: triamcinolone acetonide; Fig. 2d legend gives 35 nM; FP: 10 nM 6-FAM dsDNA, 100 mM NaCl, 20 mM Tris-HCl pH 7.4, 5% glycerol, temperature not stated; NMR: 20 mM phosphate pH 6.7, 100 mM NaCl, 1 mM TCEP, 10% D2O …
GR DBD [2] = biological target: T2, GR DBD (Homo sapiens, UniProt P04150 417-506); experiment: X-ray crystallography; 2.20 A; FP: 10 nM 6-FAM dsDNA, 100 mM NaCl, 20 mM Tris-HCl pH 7.4, 5% glycerol, temperature not stated; NMR: 20 mM phosphate pH 6.7, 100 mM NaCl, 1 mM TCEP, 10% D2O, 10 and 25 C (NOESY), 25 C (HSQC); conditions: protein: recombinant; tags: N-terminal 6xHis with TEV site
T2 sequence (P04150 417-506): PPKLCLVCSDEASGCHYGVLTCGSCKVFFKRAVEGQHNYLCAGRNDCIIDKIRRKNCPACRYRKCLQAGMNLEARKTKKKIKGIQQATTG

GR DBD [3] = biological target: T2, GR DBD; experiment: fluorescence polarization; two-site binding curve; Kd in Supplementary Table 5; FP: 10 nM 6-FAM dsDNA, 100 mM NaCl, 20 mM Tris-HCl pH 7.4, 5% glycerol, temperature not stated; NMR: 20 mM phosphate pH 6.7, 100 mM NaCl, 1 mM TCEP, 10% D2O, 10 and 25 C (NOESY), 25 C (HSQC); conditions: protein: recombinant, tags: N-terminal 6xHis with TEV site, blunt
full-length GR [4] = biological target: T1, full-length GR; experiment: fluorescence polarization; triamcinolone acetonide; FP: 10 nM 6-FAM dsDNA, 100 mM NaCl, 20 mM Tris-HCl pH 7.4, 5% glycerol, temperature not stated; NMR: 20 mM phosphate pH 6.7, 100 mM NaCl, 1 mM TCEP, 10% D2O, 10 and 25 C (NOESY), 25 C (HSQC); conditions: protein: recombinant; tags: N-terminal 6xHis; chain copies: 2; label: 5'-FAM on strand 1; blunt
GR DBD [5] = biological target: T2, GR DBD; experiment: X-ray crystallography; 2.40 A refinement; FP: 10 nM 6-FAM dsDNA, 100 mM NaCl, 20 mM Tris-HCl pH 7.4, 5% glycerol, temperature not stated; NMR: 20 mM phosphate pH 6.7, 100 mM NaCl, 1 mM TCEP, 10% D2O, 10 and 25 C (NOESY), 25 C (HSQC); conditions: protein: recombinant; tags: N-terminal 6xHis with TEV site
GR DBD [6] = biological target: T2, GR DBD; experiment: X-ray crystallography; 2.25 A; FP: 10 nM 6-FAM dsDNA, 100 mM NaCl, 20 mM Tris-HCl pH 7.4, 5% glycerol, temperature not stated; NMR: 20 mM phosphate pH 6.7, 100 mM NaCl, 1 mM TCEP, 10% D2O, 10 and 25 C (NOESY), 25 C (HSQC); conditions: protein: recombinant; tags: N-terminal 6xHis with TEV site
GR DBD [7] = biological target: T2, GR DBD; experiment: X-ray crystallography; 1.85 A; FP: 10 nM 6-FAM dsDNA, 100 mM NaCl, 20 mM Tris-HCl pH 7.4, 5% glycerol, temperature not stated; NMR: 20 mM phosphate pH 6.7, 100 mM NaCl, 1 mM TCEP, 10% D2O, 10 and 25 C (NOESY), 25 C (HSQC); conditions: protein: recombinant; tags: N-terminal 6xHis with TEV site

T1 sequence (P04150 whole entry): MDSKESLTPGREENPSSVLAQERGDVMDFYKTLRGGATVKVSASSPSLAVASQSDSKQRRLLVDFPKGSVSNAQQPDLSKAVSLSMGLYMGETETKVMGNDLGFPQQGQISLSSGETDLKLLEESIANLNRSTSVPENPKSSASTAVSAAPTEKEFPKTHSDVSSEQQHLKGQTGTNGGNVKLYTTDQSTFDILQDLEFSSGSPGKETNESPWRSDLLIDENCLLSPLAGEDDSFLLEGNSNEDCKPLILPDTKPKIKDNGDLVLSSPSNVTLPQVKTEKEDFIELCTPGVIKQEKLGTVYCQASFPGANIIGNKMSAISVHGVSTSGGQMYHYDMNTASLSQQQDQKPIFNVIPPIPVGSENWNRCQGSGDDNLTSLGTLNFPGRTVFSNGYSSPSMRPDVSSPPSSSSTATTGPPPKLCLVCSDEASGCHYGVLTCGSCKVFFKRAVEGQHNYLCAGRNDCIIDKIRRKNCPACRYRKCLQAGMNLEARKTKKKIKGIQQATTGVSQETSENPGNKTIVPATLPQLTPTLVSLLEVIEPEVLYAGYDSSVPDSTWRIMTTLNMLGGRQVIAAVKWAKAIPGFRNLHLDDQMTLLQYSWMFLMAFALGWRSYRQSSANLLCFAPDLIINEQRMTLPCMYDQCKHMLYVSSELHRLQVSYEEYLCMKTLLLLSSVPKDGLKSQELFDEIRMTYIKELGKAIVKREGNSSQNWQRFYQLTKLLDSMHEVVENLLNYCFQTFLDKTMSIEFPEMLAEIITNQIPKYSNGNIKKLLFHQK

SGK1 (+)GRE
Kd (full-length GR [1]): 34 nM

B1: CCL2 kBRE 16 bp crystal DNA (dsDNA)
DNA 1: AGTGGGAATTTCCACT
DNA 2: AGTGGAAATTCCCACT
binding result (GR DBD [2]): binds

B2: CCL2 kBRE (dsDNA)
DNA 1: GAGTGGGAATTTCCACTCA
DNA 2: TGAGTGGAAATTCCCACTC
binding result (GR DBD [3]): binds

B3: IL8 kBRE (dsDNA)
DNA 1: AATCGTGGAATTTCCTCTG
DNA 2: CAGAGGAAATTCCACGATT
Kd (full-length GR [4]): 51 nM

B4: ICAM1 kBRE 16 bp crystal DNA (dsDNA)
DNA 1: TTGGAAATTCCGGAGC
DNA 2: GCTCCGGAATTTCCAA
binding result (GR DBD [5]): binds

B5: PLAU kBRE (dsDNA)
DNA 1: CCCTGGGAATTTCCTGATA
DNA 2: TATCAGGAAATTCCCAGGG
binding result (GR DBD [3]; label: 5'-FAM on strand 1): binds

B6: RELB kBRE 16 bp crystal DNA (dsDNA)
DNA 1: CCGGGGAATTCCGCCG
DNA 2: CGGCGGAATTCCCCGG
binding result (GR DBD [6]): binds

B7: IL8 kBRE 16 bp crystal DNA (dsDNA)
DNA 1: ATCGTGGAATTTCCTC
DNA 2: GAGGAAATTCCACGAT
binding result (GR DBD [7]): binds

B8: PLAU kBRE 16 bp crystal DNA (dsDNA)
DNA 1: ATCAGGAAATTTCCAG
DNA 2: CTGGAAATTTCCTGAT
binding result (GR DBD [2]): binds
